How the values were obtained:
human CD40 (cellular) = human CD40 (cellular) (human, UniProt P25942 21-277); experiment: cell-based or functional assay
cynomolgus monkey CD40 = biological target: T1, cynomolgus monkey CD40 (cynomolgus monkey, UniProt G7PG38 21-278); experiment: ratio of binding EC50 human/cyno; ratio > 1 means increased binding to Cyno compared to Human
T1 construct: whole, on cells; also called Cyno CD40; CD40 on cynomolgus B cells and platelets

Chain of human CD40 (cellular) (P25942 21-277): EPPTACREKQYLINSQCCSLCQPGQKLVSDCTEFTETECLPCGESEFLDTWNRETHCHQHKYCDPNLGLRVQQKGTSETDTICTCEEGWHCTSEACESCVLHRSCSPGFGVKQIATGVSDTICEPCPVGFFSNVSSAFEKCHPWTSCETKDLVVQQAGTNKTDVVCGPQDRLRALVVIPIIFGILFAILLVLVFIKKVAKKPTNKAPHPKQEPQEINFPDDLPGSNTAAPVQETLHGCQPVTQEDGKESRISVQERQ

Row | Binder | B cell proliferation: Agonism (SI*) (human CD40 (cellular)) | Species cross-react.: Hu/Cyno Binding (EC50 ratios) (cynomolgus monkey CD40)
1 | 4D11 (Kirin/Astellas) anti-CD40 antibody (antibody, V domains shown) VH: QLQLQESGPGLLKPSETLSLTCTVSGGSISSPGYYGGWIRQPPGKGLEWIGSIYKSGSTYHNPSLKSRVTISVDTSKNQFSLKLSSVTAADTAVYYCTRPVVRYFGWFDPWGQGTLVTVSS VL: AIQLTQSPSSLSASVGDRVTITCRASQGISSALAWYQQKPGKAPKLLIYDASNLESGVPSRFSGSGSGTDFTLTISSLQPEDFATYYCQQFNSYPTFGQGTKVEIK | < 2 SI | –
2 | Antibody C (antibody, V domains shown, also called 2H11-159-94) VH: QVQLVQSGAEVKKPGASVKVSCTASGFNIKDYYVHWVKQAPGQGLEWMGRIDPEDGDSKYAPKFQGKATMTADTSTSTVYMELSSLRSEDTAVYYCTTSYYVGTYGYWGQGTLVTVSS VL: DIQMTQSPSSLSASVGDRVTITCSASSSVSYMLWFQQKPGKAPKLLIYSTSNLASGVPSRFSGSGSGTDFTLTISSLQPEDFATYYCQQRTFYPYTFGGGTKVEIKR | < 2 SI | 1
3 | Antibody A (antibody, human IgG1, kappa, L234A L235A, V domains shown, also called 20E2-12) VH: EVQLVESGGGLVKPGGSLRLSCAASGFTFSDYGMHWVRQAPGKGLEWVAYISSGNRIIYYADTVKGRFTISRDNAKNSLYLQMNSLRAEDTALYYCARQDGYRYAMDYWAQGTLVTVSS VL: DIVMTQSPDSLAVSLGERATMSCKSSQSLLNSGNQKNYLTWHQQKPGQPPKLLIYWTSTRESGVPDRFSGSGSGTDFTLTISSLQAEDVAVYYCQNDYTYPLTFGGGTKVEIKR | < 2 SI | 3
4 | Antibody B (antibody, V domains shown, also called 10E2-1) VH: EVQLVESGGGLVKPGGSLRLSCAASGFTFSDYGMHWVRQAPGKGLEWVAYISSGNRIIYYADTVKGRFTISRDNAKNSLYLQMNSLRAEDTAVYYCARQDGYRYAMDYWGQGTLVTVSS VL: DIVMTQSPDSLAVSLGEKVTINCKSSQSLLNSGNQKNYLTWHQQKPGQPPKLLIYWTSTRESGVPDRFSGSGSGTDFTLTISSLQAEDVAVYYCQNDYTYPLTFGGGTKVEIKR | < 2 SI | 2

From patent US20160222124A1 (published 2016)
